Results: US20230272055A1 (Incyte, published 2023)
Residue numbers refer to the chain shown, from its start.

T1: human Type 1 mutCALR on Ba/F3 cells expressing MPL and Type 1 mutCALR (human)
T1 chain: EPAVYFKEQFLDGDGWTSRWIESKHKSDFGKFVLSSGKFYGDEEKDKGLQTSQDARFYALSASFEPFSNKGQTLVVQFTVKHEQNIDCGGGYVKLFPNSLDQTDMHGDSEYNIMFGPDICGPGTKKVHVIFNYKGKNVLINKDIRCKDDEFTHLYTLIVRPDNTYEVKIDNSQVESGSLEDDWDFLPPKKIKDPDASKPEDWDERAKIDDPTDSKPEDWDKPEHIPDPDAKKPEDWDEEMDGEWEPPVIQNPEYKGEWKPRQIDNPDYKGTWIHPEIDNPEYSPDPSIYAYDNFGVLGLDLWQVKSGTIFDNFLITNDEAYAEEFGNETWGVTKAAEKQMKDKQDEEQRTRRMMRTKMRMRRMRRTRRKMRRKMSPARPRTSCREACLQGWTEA

T2: human mutCALR on BaF3 cells stably expressing human MPL and human mutCALR (MPL-mutCALR cells) (human)
T2 construct: also called mutant calreticulin
T2 chain: T1 chain

B1: anti-mutCALR antibody clone 38 (antibody, human IgG1, kappa, V domains shown)
VH: EVQPVQSGAEVKKPGSSVKVSCKASGGTFSSYAISWVRQAPGQGLEWMGLVDPEDGETIYAEKFRGRVTITADTSTDTAYMELSSLRSEDTAVYYCATEESYGPWGQGTLVTVSS
VL: DIQLTQSPSSLSASVGDRVTITCQASQDISNYLNWYQQKPGKAPKLLIYDASNLETGVPSRFSGSGSGTEFTLTISSLQPEDFATYYCQQLNSYPLTFGGGTKLEIKR
notes: human IgG1
B2: anti-mutCALR antibody clone 39 (antibody, human IgG1, kappa, V domains shown)
VH: B1 VH with P4L, R65Q
VL: B1 VL with N34D
notes: human IgG1
B3: anti-mutCALR antibody clone 41 (antibody, human IgG1, lambda, V domains shown)
VH: EVQLVQSGAEVKKPGASVKVSCKVSGYTLTELSMHWVRQAPGKGLEWMGLVDPEDGETIYAQKFQGRVTMTEDTSTDTAYMELSSLRSEDTAVYYCAREEWSGDGDDAFDIWGQGTMVTVSS
VL: QSVLTQPPSVSAAPGQKVTISCSGSSSNIGSYSVSWYQQLPGTAPKLLIYDNNKRPSGIPDRFSGSNSGTSATLGITGLQTGDEADYYCGTWDSSLSAWVFGGGTKLTVLG
notes: human IgG1
B4: anti-mutCALR antibody clone 40 (antibody, human IgG1, lambda, V domains shown)
VH: B3 VH with L32S
VL: B3 VL
notes: human IgG1
B5: anti-mutCALR antibody clone 42 (antibody, human IgG1, lambda, V domains shown)
VH: B3 VH
VL: B3 VL with N52D, G75S
notes: human IgG1
B6: anti-mutCALR antibody clone 33 (antibody, human IgG1, lambda, V domains shown)
VH: QVQLVQSGAEVKKPGATVKISCKVSGYSFTDYFIHWVQQAPGKGLAWVGLVDPEDGETIYAEKFQGRVTITADTSTDTAYMELSSLRSEDTAVYYCATPGGILTDPDAFDIWGQGTMVTVSS
VL: QSALTQPRSVSGSPGQSVTISCAGTGSDVGGYNHVSWYQHHPGKAPKLMIYDVNKRPSGVPDRFSGSKSGNTASLTISGLQAEDEADYYCSSYIPSSTRWVFGGGTKLTVLG
notes: human IgG1
B7: anti-mutCALR antibody clone 34 (antibody, human IgG1, lambda, V domains shown)
VH: B6 VH
VL: QSALTQPASVSGSPGQSITISCTGTSSDVGGYNYVSWYQQHPGKAPKLMIYEVSNRPSGVSNRFSGSKSGNTASLTISGLQAEDEADYYCSSYTSSSTYVFGTGTKVTVLG
notes: human IgG1
B8: anti-mutCALR antibody clone 48 (antibody, human IgG1, lambda, V domains shown)
VH: EVQLVQSGAEVKKPGSSVKVSCKASGGTFSSYAISWVRQAPGQGLEWMGGIIPIFGTANYAQKFQGRVTITADESTSTAYMELSSLRSEDTAVYYCASSPLRGSGWYWHYYYGMDVWGQGTTVTVSS
VL: SYVLTQPPSVSVAPGKTARITCGGNNIGSKSVHWYQQKPGQAPVLVIYQDRKRPSGIPERFSGSNSGNTATLTISGTQAMDEADYYCQAWDSSTAVFGGGTKLTVLG
notes: human IgG1
B9: anti-mutCALR antibody clone 49 (antibody, human IgG1, lambda, V domains shown)
VH: B8 VH
VL: SYELTQPPSVSVAPGKTARITCGGNNIRAKHVHWYQQKPGQSPVLVIYQDSKRPSGIPERFSGSNSGSTATLTISRVEAGDEADYYCQVWDSSTVVFGGGTKLTVLG
notes: human IgG1
B10: anti-mutCALR antibody clone 43 (antibody, human IgG1, lambda, V domains shown)
VH: B8 VH with S16A
VL: not shown
notes: human IgG1
B11: anti-mutCALR antibody clone 50 (antibody, human IgG1, lambda, V domains shown)
VH: B8 VH with E1Q, V2M
VL: B8 VL with S29T, A42S, A89V, A95E
notes: human IgG1
B12: anti-mutCALR antibody clone 51 (antibody, human IgG1, lambda, V domains shown)
VH: B8 VH
VL: B8 VL with V3E, N26K, S29T, R51S, D91G, A95V
notes: human IgG1
B13: anti-mutCALR antibody clone 45 (antibody, human IgG1, lambda, V domains shown)
VH: B8 VH
VL: SYVLTQPLSVSVAPGQTARITCGGNNIGRKSVHWYQQKPGQAPVLVIYRDSNRPSGIPERFSGSNSGNTATLTISRAQAGDEADYYCQVWDSSTVVFGGGTKLTVLG
notes: human IgG1
B14: anti-mutCALR antibody clone 6 (antibody, human IgG1, lambda)
heavy: not shown
light: QSALTQPASVSGSPGQSITISCTGTSSDVGGYNYVSWYQQHPGKAPKLMIYEVSNRPSGVSNRFSGSNSGNTATLTINRVEAGDEADYYCQVWDSSNDLLIFGGGTKLTVLGQPKAAPSVTLFPPSSEELQANKATLVCLISDFYPGAVTVAWKADSSPVKAGVETTTPSKQSNNKYAASSYLSLTPEQWKSHRSYSCQVTHEGSTVEKTVAPTECS
notes: human IgG1
B15: anti-mutCALR antibody clone 11 (antibody, human IgG1, lambda, V domains shown)
VH: EVRLVQSGAEVKKPGASVKVSCKVSGYTLTELSMQWVRQAPGKGLEWMGGFDPDDGETMYAEKFQGRLTVTEDTSTDTVYMELRSLTSEDTALYFCATSPGYDFFDYWGQGTLVTVSS
VL: QSALTQPRSVSGSPGQSVTISCTGTSSDVGGYNYVSWYQQHPGKAPKLMIYDVSKRPSGVPDRFSGSNSGNTATLTINRVEAGDEADYYCQVWDSSNDLLIFGGGTKLTVLG
notes: human IgG1
B16: anti-mutCALR antibody clone 52 (antibody, human IgG1, kappa, V domains shown)
VH: EVQLVQSGAEVKKPGASVKVSCKVSGYTLTELSMHWVRQAPGKGLEWMGLVDPEDGETIYAEKFQGRVTITADTSTDTAYMELSSPRSEDTAVYYCATTIGDDYFDYWGQGTLVTVSS
VL: not shown
notes: human IgG1
B17: anti-mutCALR antibody clone 53 (antibody, human IgG1, lambda, V domains shown)
VH: QVQLVQSGAEVKKPGASVKVSCKVSGYTLTELSMHWVRQAPGKGLEWMGGFDPEDGETIYAQKFQGRVTMTEDTSTDTAYMELSSLRSEDTAVYYCATDIQGLAEFDYWGQGTLVTVSS
VL: QSALTQPRSVSGSPGQSVTISCTGTNTDVGAYIDVSWYQQHPGKAPKLIIYDVSKWPSGVPDRFSGSKSGNTASLTISGLQAEDEADYYCCSYAGNHSFSFGGGTKVTVLG
notes: human IgG1
B18: anti-mutCALR antibody clone 4 (antibody, human IgG1, lambda, V domains shown)
VH: B15 VH with R3Q
VL: SYVLTQPPSVSVAPGQTARITCGGNNIGSKSVHWYQQKPGQAPVLVVYDDSDRPSGIPERFSGSNSGNTATLTINRVEAGDEADYYCQVWDSSNDLLIFGGGTKLTVLG
B19: anti-mutCALR antibody clone 1 (antibody, human IgG1, lambda, V domains shown)
VH: B15 VH with R3Q
VL: B18 VL with Q16K, N26Y, S51G, E59A, N75S, S93I, N94S, L96H, L97V, I98V
notes: human IgG1; group 1
B20: anti-mutCALR antibody clone 37 (antibody, human IgG1, lambda, V domains shown)
VH: B6 VH
VL: QSALTQPASVSGSPGQSITISCTGTSSDVGGYNYVSWYQQHPGKAPKLMIYDVSNRPSGVSNRFSGSKSGNTASLTISGLQAEDEADYYCSSYTSSSTFYVFGTGTKVTVLG
notes: human IgG1; group 2
B21: anti-mutCALR antibody clone 36 (antibody, human IgG1, lambda, V domains shown)
VH: B6 VH
VL: B6 VL with H34Y, I94T, P95S, R99F, W100Y, G104T, L108V
notes: human IgG1; group 2
B22: anti-mutCALR antibody clone 35 (antibody, human IgG1, lambda, V domains shown)
VH: B6 VH with K63R
VL: B20 VL with D52E, F99P
notes: human IgG1; group 2

Biological target: T1, human Type 1 mutCALR on Ba/F3 cells …
Assay: cell-based or functional assay

Row | Binder | IC50, inhibition of pSTAT5
1 | B1 | 3.55 µg/mL
2 | B2 | 3.97 µg/mL
3 | B3 | 0.364 µg/mL
4 | B4 | 0.742 µg/mL
5 | B5 | 0.196 µg/mL
6 | B6 | 80.4 µg/mL
7 | B7 | 0.072 µg/mL
8 | B8 | 2.6 µg/mL
9 | B9 | 9.3 µg/mL
10 | B10 | 6.9 µg/mL
11 | B11 | 28 µg/mL
12 | B12 | 14 µg/mL
13 | B13 | 13 µg/mL
14 | B14 | 0.03 µg/mL
15 | B15 | 0.052 µg/mL
16 | B16 | 0.346 µg/mL
17 | B17 | 0.402 µg/mL

Biological target: T2, human mutCALR on BaF3 cells stably …
Assay: flow cytometry, BaF3 MPL-mutCALR cells
Method: On the day of the assay, cells were washed and resuspended in assay buffer. Approximately 200,000 cells/well were added to 96-well plates and stained with the indicated concentration of antibodies for 30 minutes on ice. Cells were then washed and stained with goat anti-human secondary conjugated to R-phycoerythrin (R-PE) (Jackson Immuno Research Laboratories) for 30 minutes on ice. The cells were then washed and analyzed by flow cytometry.

Row | Binder | EC50 | MPL-mutCALR AUC
18 | B1 | 1.44 µg/mL | 37000
19 | B2 |  | 51500
20 | B3 |  | 60600
21 | B4 | 0.07 µg/mL | 52900
22 | B5 |  | 61300
23 | B6 | 0.15 µg/mL | 38700
24 | B7 | 0.02 µg/mL | 71900
25 | B8 |  | 30300
26 | B9 | 0.89 µg/mL | 36400
27 | B10 |  | 27900
28 | B11 | 0.8 µg/mL | 36700
29 | B12 | 1.15 µg/mL | 37300
30 | B13 |  | 29800
31 | B14 | 0.3 µg/mL | 58200
32 | B15 | 0.05 µg/mL | 69700
33 | B16 |  | 65800
34 | B17 | 0.02 µg/mL | 64600

biological target: MBP protein (UniProt P0AEX9 27-392 = MBP); assay: SPR (Biacore 8K), antibody captured on anti-human IgG (Fc), MBP injected
Method: Experiment 1: Recombinant MBP-mutCALR Type 1 fusion protein was custom made at Cepter (cepterbiopartners.com). Data for the interaction of antibodies with recombinant MBP-mutCALR Type 1 fusion protein were collected at 25° C. on a Biacore 8K instrument (Cytiva, Marlborough, Mass.), and all reagents were obtained from Cytiva unless otherwise specified. The experiments were conducted using Tris-buffered saline (pH 7.2), 0.005% Surfactant P20, 1 mM CaCl₂) as running buffer. To prepare the capture surfaces, anti-human IgG (Fc) antibodies (Product #29234600) was amine-coupled onto a CM4 chip (Product #BR100534) under standard conditions using an Amine Coupling Kit (Product #BR100050). […] The kinetics parameters were obtained by applying 1:1 binding model to fit the data from multiple-cycle injection experiments using Biacore Insight Evaluation software.

Row | Binder | binding result
35 | B18 | no binding (tested: 250 nM)
36 | B19 | no binding (tested: 250 nM)
37 | B20 | no binding (tested: 250 nM)
38 | B21 | no binding (tested: 250 nM)
39 | B22 | no binding (tested: 250 nM)
